In patent US20260028608A1:

Experiments:
[1] = biological target: Human IgG (fixed concentration, MSD potency assay of Example 4); assay: cell-based or functional assay
[2] = biological target: IgG in human serum pool from 100 individuals; assay: cell-based or functional assay

Binder	mean relative potency (EC50Ref/EC50Test x 100%), MSD potency assay of IgG cleavage [1]	Relative Potency (%) In Serum, Plate 1 (MSD, from EC50; reference IdeS) [2]	Relative Potency (%) In Serum, Plate 1 (MSD, from EC50; reference IdeS; separate dilutions) [2]	Relative Potency (%) In Serum, Plate 2 (MSD, from EC50; reference IdeS) [2]	Relative Potency (%) In Serum, Plate 2 (MSD, from EC50; reference IdeS; separate dilutions) [2]	Relative Potency (%) In serum, Mean value (MSD, from EC50; reference IdeS) [2]	Relative Potency (%) In serum, Mean value (MSD, from EC50; reference IdeS; separate dilutions) [2]	enzyme concentration at which all IgG were converted to scIgG, serum pool with 0.1 mg/ml pCART243 (SDS-PAGE) [2]
N240, a variant IdeZ polypeptide of the invention (enzyme) MDDYQRNATEAYAKEVPHQITSVWTKGVTPPEQFTQGEDVIHAPYLAHQGWYDITKAFNGKDDLLCGAATAGNMLHWWFDQNKTEIEAYLSKHPEKQKIIFRNQELFDLKAAIDTKDSQTNSQLFNYFRDKAFPNLSARQLGVMPDLVLDMFINGYYLNVFKTQSTDVNRPYQDKDKRGGIFDAVFTRGNQTTLLTARHDLKNKGLNDISTIIKQELTEGRALALSHTYANVSISHVINLWGADFNAEGNLEAIYVTDSDANASIGMKKYFVGINAHGHVAISAKKIEGENIGAQVLGLFTLSSGKDIWQKLS	300%	151%	137%	132%	146%	142%	142%	–
pCART239, a variant IdeZ polypeptide of the invention (enzyme) MDDYQRNATEAYAKEVPHQITSVWTKGVTPPEQFTQGEDVIHAPYLAHQGWYDITKAFNGKDDLLCGAATAGNMLHWWFDQNKTEIEAYLSKHPEKQKIIFRNQELFDLKAAIDTKDSQTNSQLFNYFRDKAFPNLSARQLGVMPDLVLDMFINGYYLNVFKTQSTDVNRPYQDKDKRGGIFDAVFTRGNQTTLLTARHDLKNKGLNDISTIIKQELTEGRALALSHTYANVSISHVINLWGADFNAEGNLEAIYVTDSDANASIGMKKYFVGINAHGHVAISAKKIEGENIGAQVLGLFTLSSGKDIWQKLSGGGHHHHHH	–	–	–	–	–	–	–	0.5 µg/ml
